Test results reported in ChEMBL document CHEMBL1908105, “UDP-glucuronosyltransferases and clinical drug-drug interactions” (Pharmacol Ther, 2005).
“And” between values parts separate entries of the source, which are not always exact repeats. Identical values can stand only once.

Tests used:
[1] = Inhibition of AZT (0.02 mM) glucuronidation by human UGT enzymes from liver microsomes; design: species or system Microsome
[2] = molecular target: T1, UDP-glucuronosyltransferase 1A4 (Homo sapiens, UniProt P22310); experiment: (§1) Drug glucuronidation reaction catalyzed by human recombinant UGT1A4
T1 sequence (P22310 whole entry): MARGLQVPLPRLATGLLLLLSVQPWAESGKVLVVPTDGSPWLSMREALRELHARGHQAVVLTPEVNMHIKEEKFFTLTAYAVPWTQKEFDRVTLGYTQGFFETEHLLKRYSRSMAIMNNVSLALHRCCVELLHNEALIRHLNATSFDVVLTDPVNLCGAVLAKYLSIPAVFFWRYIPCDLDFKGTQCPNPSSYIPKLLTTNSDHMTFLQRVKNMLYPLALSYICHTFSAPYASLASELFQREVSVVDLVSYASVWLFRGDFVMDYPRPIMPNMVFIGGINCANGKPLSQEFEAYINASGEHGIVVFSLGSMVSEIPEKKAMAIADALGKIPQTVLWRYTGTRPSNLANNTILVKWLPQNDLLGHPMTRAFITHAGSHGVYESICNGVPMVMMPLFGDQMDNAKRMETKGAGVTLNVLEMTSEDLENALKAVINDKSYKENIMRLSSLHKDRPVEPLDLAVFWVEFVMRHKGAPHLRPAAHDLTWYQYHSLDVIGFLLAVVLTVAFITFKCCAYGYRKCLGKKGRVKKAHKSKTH

[3] = molecular target: UDP-glucuronosyltransferase 2B15 (Homo sapiens, UniProt P54855); experiment: Drug glucuronidation reaction catalyzed by human recombinant UGT2B15
[4] = molecular target: T2, UDP-glucuronosyltransferase 1A1 (Homo sapiens, UniProt P22309); experiment: (§2) Drug glucuronidation reaction catalyzed by human recombinant UGT1A1
T2 sequence (P22309 whole entry): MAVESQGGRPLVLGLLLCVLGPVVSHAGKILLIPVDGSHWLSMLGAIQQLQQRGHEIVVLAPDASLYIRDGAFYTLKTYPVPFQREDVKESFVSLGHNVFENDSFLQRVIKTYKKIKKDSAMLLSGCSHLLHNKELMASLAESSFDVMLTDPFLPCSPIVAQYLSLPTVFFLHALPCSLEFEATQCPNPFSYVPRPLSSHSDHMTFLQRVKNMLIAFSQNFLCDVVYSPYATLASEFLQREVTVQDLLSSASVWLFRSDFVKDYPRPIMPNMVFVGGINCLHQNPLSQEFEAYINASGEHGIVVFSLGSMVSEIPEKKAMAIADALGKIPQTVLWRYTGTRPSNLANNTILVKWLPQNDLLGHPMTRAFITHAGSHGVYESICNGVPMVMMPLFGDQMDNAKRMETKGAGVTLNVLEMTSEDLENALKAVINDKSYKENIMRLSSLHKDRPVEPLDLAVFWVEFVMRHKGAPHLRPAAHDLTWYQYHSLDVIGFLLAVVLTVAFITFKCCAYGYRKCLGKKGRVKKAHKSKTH

[5] = molecular target: T3, UDP-glucuronosyltransferase 1A9 (Homo sapiens, UniProt O60656); experiment: Drug glucuronidation reaction catalyzed by human recombinant UGT1A9
T3 sequence (O60656 whole entry): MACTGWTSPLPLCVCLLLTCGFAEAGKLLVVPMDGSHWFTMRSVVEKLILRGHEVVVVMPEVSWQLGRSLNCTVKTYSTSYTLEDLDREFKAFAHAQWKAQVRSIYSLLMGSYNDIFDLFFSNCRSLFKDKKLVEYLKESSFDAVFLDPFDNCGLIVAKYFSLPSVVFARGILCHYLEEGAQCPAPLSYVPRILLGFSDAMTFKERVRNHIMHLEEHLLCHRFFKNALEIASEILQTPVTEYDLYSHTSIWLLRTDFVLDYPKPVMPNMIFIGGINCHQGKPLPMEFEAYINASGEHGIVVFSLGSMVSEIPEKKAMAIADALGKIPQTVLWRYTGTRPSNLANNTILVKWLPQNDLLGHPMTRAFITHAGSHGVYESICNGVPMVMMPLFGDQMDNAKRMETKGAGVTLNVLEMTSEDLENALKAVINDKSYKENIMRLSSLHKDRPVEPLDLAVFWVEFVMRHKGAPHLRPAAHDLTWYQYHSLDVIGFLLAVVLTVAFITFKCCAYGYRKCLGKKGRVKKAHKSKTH

[6] = substrate: CN1CCC(=C2c3ccccc3CC(=O)c3sccc32)CC1; experiment: as §1
[7] = substrate: CCc1c2c(nc3ccc(O)cc13)-c1cc3c(c(=O)n1C2)COC(=O)[C@]3(O)CC; experiment: as §1
[8] = substrate: CC[C@@H]([C@H](C)O)n1ncn(-c2ccc(N3CCN(c4ccc(OC[C@@H]5CO[C@@](Cn6cncn6)(c6ccc(F)cc6F)C5)cc4)CC3)cc2)c1=O; experiment: as §1
[9] = substrate: CC/C(=C(\c1ccccc1)c1ccc(OCCN(C)C)cc1)c1ccccc1; experiment: as §1
[10] = substrate: CC(O)/C(=C(\c1ccccc1)c1ccc(OCCN(C)C)cc1)c1ccccc1; experiment: as §1
[11] = substrate: CN1CCC(=C2c3ccccc3C=Cc3ccccc32)CC1; experiment: as §1
[12] = substrate: CC(=O)Nc1ccc(O)cc1; experiment: as §2
[13] = substrate: C=CCN1CC[C@]23c4c5ccc(O)c4O[C@H]2[C@@H](O)C=C[C@H]3[C@H]1C5; experiment: as §2
[14] = substrate: C#C[C@]1(O)CC[C@H]2[C@@H]3CCc4cc(O)ccc4[C@H]3CC[C@@]21C; experiment: as §2
[15] = substrate: CCc1c2c(nc3ccc(O)cc13)-c1cc3c(c(=O)n1C2)COC(=O)[C@]3(O)CC; experiment: as §2
[16] = substrate: CO[C@]12CC[C@@]3(C[C@@H]1[C@](C)(O)C(C)(C)C)[C@H]1Cc4ccc(O)c5c4[C@@]3(CCN1CC1CC1)[C@H]2O5; experiment: as §2
[17] = substrate: O=C1[C@H](CC[C@H](O)c2ccc(F)cc2)[C@@H](c2ccc(O)cc2)N1c1ccc(F)cc1; experiment: as §2
[18] = substrate: CCOC(=O)Nc1ccc(NCc2ccc(F)cc2)cc1N; experiment: as §2
[19] = substrate: CCN(CC)C(=O)/C(C#N)=C\c1cc(O[C@@H]2O[C@@H](C(=O)O)[C@@H](O)[C@H](O)[C@@H]2O)c(O)c([N+](=O)[O-])c1; experiment: as §2
[20] = substrate: CN1CC[C@]23c4c5ccc(O[C@@H]6O[C@H](C(=O)O)[C@@H](O)[C@H](O)[C@H]6O)c4O[C@H]2[C@@H](O)C=C[C@H]3[C@H]1C5; experiment: as §2
[21] = substrate: O=C1CC[C@@]2(O)[C@H]3Cc4ccc(O)c5c4[C@@]2(CCN3CC2CC2)[C@H]1O5; experiment: as §2
[22] = substrate: COc1c(C)c2c(c(O)c1C/C=C(\C)CCC(=O)O)C(=O)OC2; experiment: as §2
[23] = substrate: COc1cc([C@@H]2c3cc4c(cc3[C@@H](O[C@@H]3O[C@@H]5CO[C@@H](C)O[C@H]5[C@H](O)[C@H]3O)[C@H]3COC(=O)[C@H]23)OCO4)cc(OC)c1O; experiment: as §2
[24] = substrate: CC(O)/C(=C(\c1ccccc1)c1ccc(OCCN(C)C)cc1)c1ccccc1; experiment: as §2
[25] = substrate: CCN(CC)C(=O)/C(C#N)=C/c1cc(O[C@@H]2O[C@@H](C(=O)O)[C@@H](O)[C@H](O)[C@@H]2O)c(O)c([N+](=O)[O-])c1; experiment: as §2
[26] = substrate: CN1CCC(=C2c3ccccc3CC(=O)c3sccc32)CC1; experiment: (§3) Drug glucuronidation reaction catalyzed by human recombinant UGT1A3
[27] = substrate: CO[C@]12CC[C@@]3(C[C@@H]1[C@](C)(O)C(C)(C)C)[C@H]1Cc4ccc(O)c5c4[C@@]3(CCN1CC1CC1)[C@H]2O5; experiment: as §3
[28] = substrate: CN(C)CCCN1c2ccccc2CCc2ccccc21; experiment: as §3
[29] = substrate: CC(C)Cc1ccc(C(C)C(=O)O)cc1; experiment: as §3
[30] = substrate: O=C1[C@H](CC[C@H](O)c2ccc(F)cc2)[C@@H](c2ccc(O)cc2)N1c1ccc(F)cc1; experiment: as §3
[31] = substrate: CN1CC[C@]23c4c5ccc(O[C@@H]6O[C@H](C(=O)O)[C@@H](O)[C@H](O)[C@H]6O)c4O[C@H]2[C@@H](O)C=C[C@H]3[C@H]1C5; experiment: as §3
[32] = substrate: CC(C(=O)O)c1cccc(C(=O)c2ccccc2)c1; experiment: as §3
[33] = substrate: CN1CCC(=C2c3ccccc3C=Cc3ccccc32)CC1; experiment: as §3
not read = substrate: Cc1c(Cl)cccc1Nc1ncccc1C(=O)O; experiment: not read

Chain of UDP-glucuronosyltransferase 2B15 (P54855 whole entry): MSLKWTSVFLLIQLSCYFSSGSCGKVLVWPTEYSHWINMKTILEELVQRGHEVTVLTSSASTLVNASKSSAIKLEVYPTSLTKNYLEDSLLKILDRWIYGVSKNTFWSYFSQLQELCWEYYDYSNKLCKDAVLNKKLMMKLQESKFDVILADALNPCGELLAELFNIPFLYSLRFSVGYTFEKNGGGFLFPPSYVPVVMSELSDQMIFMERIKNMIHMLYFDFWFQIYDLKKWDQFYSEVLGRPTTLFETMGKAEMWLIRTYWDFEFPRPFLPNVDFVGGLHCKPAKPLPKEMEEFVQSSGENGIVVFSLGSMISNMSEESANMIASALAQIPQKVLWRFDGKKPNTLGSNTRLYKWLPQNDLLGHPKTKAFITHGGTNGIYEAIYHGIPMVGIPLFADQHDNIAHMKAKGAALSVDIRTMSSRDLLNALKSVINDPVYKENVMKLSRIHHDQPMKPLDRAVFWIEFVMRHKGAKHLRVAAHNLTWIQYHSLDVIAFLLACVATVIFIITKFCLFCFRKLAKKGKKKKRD

## OC(Cn1cncn1)(Cn1cncn1)c1ccc(F)cc1F [FLUCONAZOLE]
[1]
  IC50: 163 µM

## O=C1C(O)=C([C@H]2CC[C@H](c3ccc(Cl)cc3)CC2)C(=O)c2ccccc21 [ATOVAQUONE]
[1]
  IC50: > 273 µM

## CC(O)/C(=C(\c1ccccc1)c1ccc(OCCN(C)C)cc1)c1ccccc1 (stereo in doubt; cis)
[2]
  Vmax: 315 pmol/min/mg protein
[3]
  Vmax: 720 pmol/min/mg protein
[4]
  Vmax: 291 pmol/min/mg protein
[5]
  Vmax: 57 pmol/min/mg protein

## CC(O)/C(=C(\c1ccccc1)c1ccc(OCCN(C)C)cc1)c1ccccc1 (stereo in doubt; trans)
[2]
  Vmax: 547 pmol/min/mg protein
[3]
  Vmax: 70 pmol/min/mg protein
[4]
  Vmax: 166 pmol/min/mg protein
[5]
  Vmax: 72 pmol/min/mg protein

B1: UDP-glucuronosyltransferase 1A4 (Homo sapiens) (protein)
chain: T1 sequence (P22310 whole entry)
[6]
  Km: 59 µM and 86 µM
[7]
  Km: 147 µM
  Vmax: 0.000132 µmol/min/mg
[8]
  Km: 16 µM
  Vmax: 1.7e-05 µmol/min/mg
[9]
  Km: 32 µM
  Vmax: 0.000402 µmol/min/mg
[10]
  Km: 95 µM and 101 µM
[11]
  Km: 62 µM
  Vmax: 4.9e-05 µmol/min/mg

B2: UDP-glucuronosyltransferase 1A1 (Homo sapiens) (protein)
chain: T2 sequence (P22309 whole entry)
[12]
  Km: 9400 µM
  Vmax: 0.0013 µmol/min/mg
[13]
  Km: 2070 µM
  Vmax: 2e-06 µmol/min/mg
[14]
  Km: 9 µM and 20 µM
[15]
  Km: 24 µM
  Vmax: 0.000134 µmol/min/mg
[16]
  Km: 57 µM and 69 µM
[17]
  Km: 64 µM
  Vmax: 0.00071 µmol/min/mg
[18]
  Km: 460 µM
[19]
  Km: 93 µM
  Vmax: 5e-06 µmol/min/mg
[20]
  Km: 18700 µM
  Vmax: 4.5e-06 µmol/min/mg
[21]
  Km: 1310 µM
  Vmax: 2e-06 µmol/min/mg
[22]
  Km: 185 µM
  Vmax: 0.000336 µmol/min/mg
[23]
  Km: 503 µM
  Vmax: 0.000267 µmol/min/mg
[24]
  Km: 138 µM and 129 µM
[25]
  Km: 31 µM
  Vmax: 4e-06 µmol/min/mg

B3: UDP-glucuronosyltransferase 1A3 (Homo sapiens) (protein)
chain: MATGLQVPLPWLATGLLLLLSVQPWAESGKVLVVPIDGSHWLSMREVLRELHARGHQAVVLTPEVNMHIKEENFFTLTTYAISWTQDEFDRHVLGHTQLYFETEHFLKKFFRSMAMLNNMSLVYHRSCVELLHNEALIRHLNATSFDVVLTDPVNLCAAVLAKYLSIPTVFFLRNIPCDLDFKGTQCPNPSSYIPRLLTTNSDHMTFMQRVKNMLYPLALSYICHAFSAPYASLASELFQREVSVVDILSHASVWLFRGDFVMDYPRPIMPNMVFIGGINCANRKPLSQEFEAYINASGEHGIVVFSLGSMVSEIPEKKAMAIADALGKIPQTVLWRYTGTRPSNLANNTILVKWLPQNDLLGHPMTRAFITHAGSHGVYESICNGVPMVMMPLFGDQMDNAKRMETKGAGVTLNVLEMTSEDLENALKAVINDKSYKENIMRLSSLHKDRPVEPLDLAVFWVEFVMRHKGAPHLRPAAHDLTWYQYHSLDVIGFLLAVVLTVAFITFKCCAYGYRKCLGKKGRVKKAHKSKTH
[26]
  Km: 225 µM and 123 µM
[27]
  Km: 55 µM
  Vmax: 7.5e-05 µmol/min/mg
[28]
  Km: 472 µM
  Vmax: 1e-05 µmol/min/mg
[29]
  Km: 230 µM
  Vmax: 8.8e-05 µmol/min/mg
[30]
  Km: 42 µM
  Vmax: 0.00048 µmol/min/mg
[31]
  Km: 3200 µM
  Vmax: 1e-05 µmol/min/mg
[32]
  Km: 84 µM
  Vmax: 7.6e-05 µmol/min/mg
[33]
  Km: 240 µM
  Vmax: 0.000134 µmol/min/mg
Not read
  Km: 624 µM
  Vmax: 5.2e-05 µmol/min/mg
